This note sets out measurements from patent US20160053011A1 (ABCLON, published 2016).

Positions count from the first letter of the chain named.

B1: M1-L-A1-3-1C3 (hz1E11-3), periplasmic extract (antibody, V domains shown)
VH: EVQLVESGGGLVQPGGSLRLSCAASGFTFSSYTMSWVRQAPGKGLEWVAYISNGGGSTYYPDTVKGRFTISRDNAKNSLYLQMNSLRAEDTAVYYCARHLGGTASFDYWGQGTLVTVSS
VL: DIQMTQSPSSLSASVGDRVTITCLASQTIGTWLAWYQQKPGKAPKLLIYVATSLADGVPSRFSGSGSGTDFTLTISSLQPEDFATYYCDQMYSTPWTFGQGTKVEIK
notes: Library clone expressed in bacteria with IPTG, tested as periplasmic extract; LCDR3 DQMYSTPWT
B2: M3-L-A1-3-2C2 (antibody, V domains shown)
VH: B1 VH
VL: B1 VL with D89Q, M91L, Y92G, S93F, T94I
notes: hz1E11 library clone, periplasmic extract
B3: M1-LH-A3-3-1A6 (antibody, name in Kabat numbering, V domains shown)
VH: B1 VH with H99N, L100Y
VL: B1 VL with D89Q, M91L, Y92V, S93R
notes: as for B2
B4: M3-LH-A3-3-2F1 (antibody, V domains shown)
VH: B1 VH
VL: B1 VL with D89Q, M91N, Y92A, S93Y, T94N
notes: as for B2
B5: M3-L-A3-4-2E8 (antibody, V domains shown)
VH: B1 VH
VL: B1 VL with D89Q, M91I, Y92A, S93Y, T94V
notes: as for B2
B6: M3-L-A1-3-1F11 (hz1E11-154), periplasmic extract (antibody, V domains shown)
VH: B1 VH
VL: B1 VL with D89Q, M91T, Y92A, S93F, T94S
notes: Library clone expressed in bacteria with IPTG, tested as periplasmic extract; LCDR3 QQTAFSPWT
B7: M3-LH-A1-1-1H1 (antibody, name in Kabat numbering, V domains shown)
VH: B1 VH with H99N, L100Y
VL: B1 VL with D89Q, M91N, Y92F, S93I, T94A
notes: as for B2
B8: M3-LH-A3-3-2A5 (antibody, name in Kabat numbering, V domains shown)
VH: B1 VH with L100W
VL: B1 VL with D89Q, Y92F
notes: as for B2
B9: M3-L-A1-3-1A12 (hz1E11-133), periplasmic extract (antibody, V domains shown)
VH: B1 VH
VL: B1 VL with D89Q, M91N, Y92A, S93Y, T94A
notes: Library clone expressed in bacteria with IPTG, tested as periplasmic extract; LCDR3 QQNAYAPWT
B10: M3-LH-A1-2-2F4 (antibody, name in Kabat numbering, V domains shown)
VH: B1 VH with H99N
VL: B1 VL with D89Q, M91L, Y92V, S93R, T94I
notes: as for B2
B11: hz1E11 CDR-L3 Y92A (antibody, V domains shown)
VH: B1 VH
VL: B1 VL with D89Q, M91L, Y92A
notes: Alanine scanning variant, expressed in bacteria, periplasmic extract
B12: hz1E11 CDR-L3 Q90A (antibody, V domains shown)
VH: B1 VH
VL: B1 VL with D89Q, Q90A, M91L
notes: as for B11
B13: hz1E11 CDR-H3 S100aA (antibody, name in Kabat numbering, V domains shown)
VH: B1 VH with S105A
VL: B1 VL with D89Q, M91L
notes: as for B11
B14: hz1E11 CDR-H3 L96A (antibody, name in Kabat numbering, V domains shown)
VH: B1 VH with L100A
VL: B1 VL with D89Q, M91L
notes: as for B11
B15: hz1E11 CDR-L3 Q89A (antibody, V domains shown)
VH: B1 VH
VL: B1 VL with D89A, M91L
notes: as for B11
B16: hz1E11 CDR-H3 H95A (antibody, name in Kabat numbering, V domains shown)
VH: B1 VH with H99A
VL: B1 VL with D89Q, M91L
notes: as for B11
B17: hz1E11 CDR-L3 T94A (antibody, V domains shown)
VH: B1 VH
VL: B1 VL with D89Q, M91L, T94A
notes: as for B11
B18: hz1E11 CDR-L3 L91A (antibody, V domains shown)
VH: B1 VH
VL: B1 VL with D89Q, M91A
notes: as for B11
B19: hz1E11 CDR-L3 S93A (antibody, V domains shown)
VH: B1 VH
VL: B1 VL with D89Q, M91L, S93A
notes: as for B11
B20: hz1E11 CDR-H3 T99A (antibody, name in Kabat numbering, V domains shown)
VH: B1 VH with T103A
VL: B1 VL with D89Q, M91L
notes: as for B11
B21: hz1E11-154 (IgG) (antibody, V domains shown)
VH: B1 VH
VL: B1 VL with D89Q, M91T, Y92A, S93F, T94S
notes: heavy chain variable region the same as hz1E11
B22: hz1E11-133 (IgG) (antibody, V domains shown)
VH: B1 VH
VL: B1 VL with D89Q, M91N, Y92A, S93Y, T94A
notes: as for B21
B23: hz1E11-3 (IgG) (antibody, V domains shown)
VH: B1 VH
VL: B1 VL
notes: as for B21

The target of the first assay is T1, HER2-ECD-His protein (human, UniProt P04626 23-652).
T1 construct: extracellular domain; not shown: His tag
As to the kind of experiment: SPR (Biacore 3000), HER2-ECD-His amine-coupled to CM5, periplasmic extract as analyte. As to the method: In order to select clones with improved Koff among the selected clones, the clones were analyzed via Biacore 3000 (GE Healthcare). The HER2-ECD-His protein was immobilized to a CM5 sensor chip via an amine coupling method using ECD/NHS. […] The Koff value for each antibody was analyzed via BIAevaluation software.
In general terms: In SPR one partner is held on a chip, and binding of the other changes the refractive index at the surface.
In the case of B1, the “Degree of reduction (Fold) of koff against hz1E11” value (shortened to “Degree of reduction (Fold) of koff”) turned out to be 7.4 fold.
For the molecule B2, the “Degree of reduction (Fold) of koff” value is 2 fold.
Take B3: the “Degree of reduction (Fold) of koff” value turned out to be 5.8 fold.
The same measure, in the same setting: for B4 the value was 4.4 fold; for B5, 5.9 fold; for B6, 9.7 fold.
The same measure, in the same setting: for B7 the value was 0.7 fold.
On the same count and under the same terms, for B8 the value was 3.6 fold; for B9, 30.4 fold.
Regarding B10, the “Degree of reduction (Fold) of koff” value is 3.2 fold.

For a further assay, the target named is T2, HER2-ECD (ELISA antigen of Examples 13 and 14) (human, UniProt P04626 23-652).
T2 construct: extracellular domain
Briefly: ELISA, periplasmic extract on HER2-ECD. For orientation: An ELISA detects its analyte on a solid surface through an enzyme-linked reagent.
Consider B11, for which the binding result was “binds”.
Same read-out and setting: the result for B12 reads “binds”; that for B13, “binds”.
Still for that read-out and setting: for B14 the value was “binds”; for B15, “binds”.
On the same count and under the same terms, the result for B16 reads “binds”.
B17: the binding result is “binds”.
Still for that read-out and setting: the result for B18 reads “binds”; that for B19, “binds”; that for B20, “binds”.

The target of a further assay is T1, HER2-ECD-His protein. Briefly: SPR, IgG captured by goat anti-human IgG on CM5, HER2-ECD-His analyte. The protocol: The goat anti-human IgG (Invitrogen, #H10500) at a concentration of 2000 RU was immobilized to a CM5 sensor chip via ECD/NHS method. Then, the antibodies were allowed to bind at a rate of 50 μL/min for 5 minutes, and allowed the buffer to flow thereonto for 5 minutes for stabilization purpose. […] After analyzing each of the concentrations, they were recycled using 10 mM Glycine (pH 1.5) and performed the subsequent assays. The affinities of the antibodies were analyzed via BIAevaluation software.
In the case of B21, binding was characterised by a dissociation constant (Kd) of 1.1 nM, the “fold decrease in Koff (kd) compared to hz1E11” value was found to be 8.4 fold, the “fold improvement of affinity compared to hz1E11” value amounted to 20 fold and the koff worked out at 9.9e-05 s⁻¹. This molecule also showed a kon of 86000 M⁻¹ s⁻¹.
For B22, in that order: 1.5 nM, 8.4 fold, 15 fold, 9.9e-05 s⁻¹ and 64000 M⁻¹ s⁻¹.
B23 showed a Kd of 5.2 nM, an off-rate constant (koff) of 0.0002 s⁻¹ and a kon of 38000 M⁻¹ s⁻¹.

Usually Kd stands for the concentration at which binding is half-saturated. Low readings indicate tighter binding, high ones weaker binding. As a reminder, the koff is a measure of how fast the partners let go of each other. High values mean fast dissociation, low ones slow dissociation. Usually kon stands for a measure of how fast the partners come together. High values mean fast association, low ones slow association.
